Test system: Escherichia coli TOP10
Experiment: shrunken log2 fold change of peptide-encoding DNA abundance (4.5 h post-induction vs induction); higher = less antimicrobial activity (less host growth inhibition)
Details: time post-induction: 4.5 h; library: site-saturation at positions 5, 18, 19, 20
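Also: peptides expressed intracellularly from a pBAD plasmid library in pooled LB shake-flask culture, induced with 0.3% L-arabinose, DNA abundance read by NGS, three biological replicates, DESeq2 with apeglm shrinkage.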

| Sequence | shrunken log2 fold change |
| --- | --- |
| RRIRSRPPRLPRPRPRPEAVPRP | -0.0338 |
| RRIRSRPPRLPRPRPRPRSPPRP | 0.363 |
| RRIRNRPPRLPRPRPRPPFYPRP | -0.403 |
| RRIRMRPPRLPRPRPRPDKHPRP | 0.253 |
| RRIRARPPRLPRPRPRPVPKPRP | 0.791 |
| RRIRSRPPRLPRPRPRPGNKPRP | -0.194 |
| RRIRYRPPRLPRPRPRPRVYPRP | -0.847 |
| RRIRLRPPRLPRPRPRPILIPRP | 0.198 |
| RRIRGRPPRLPRPRPRPTVEPRP | 1.27 |
| RRIRVRPPRLPRPRPRPFSMPRP | -0.0688 |
| RRIRCRPPRLPRPRPRPFWEPRP | -0.0195 |
| RRIRGRPPRLPRPRPRPCYNPRP | 0.0333 |
| RRIRQRPPRLPRPRPRPFLDPRP | -0.372 |
| RRIRIRPPRLPRPRPRPMCEPRP | -0.00819 |
| RRIRGRPPRLPRPRPRPEATPRP | 2.21 |
| RRIRFRPPRLPRPRPRPSQWPRP | -0.171 |
| RRIRQRPPRLPRPRPRPARQPRP | 0.182 |
| RRIRARPPRLPRPRPRPIDIPRP | 0.0327 |
| RRIRNRPPRLPRPRPRPGSPPRP | -0.11 |
| RRIRGRPPRLPRPRPRPHGMPRP | 0.0949 |
| RRIRVRPPRLPRPRPRPYISPRP | -0.0821 |
| RRIRYRPPRLPRPRPRPRPYPRP | -0.259 |
| RRIRLRPPRLPRPRPRPMPMPRP | 0.0663 |
| RRIRRRPPRLPRPRPRPGAMPRP | 0.337 |
| RRIRTRPPRLPRPRPRPDVIPRP | -0.0157 |

| Sequence | shrunken log2 fold change |
| --- | --- |
| RRIRDRPPRLPRPRPRPSATPRP | 0.515 |
| RRIRDRPPRLPRPRPRPAQAPRP | -0.0288 |
| RRIRARPPRLPRPRPRPYLAPRP | -0.594 |
| RRIRARPPRLPRPRPRPPVKPRP | 0.404 |
| RRIRARPPRLPRPRPRPDSQPRP | 0.0999 |
| RRIRNRPPRLPRPRPRPVVEPRP | -0.00885 |
| RRIRNRPPRLPRPRPRPQCGPRP | -0.241 |
| RRIRKRPPRLPRPRPRPYRHPRP | -1.11 |
| RRIRARPPRLPRPRPRPRCFPRP | 0.222 |
| RRIRERPPRLPRPRPRPGDEPRP | 0.115 |
| RRIRYRPPRLPRPRPRPMQGPRP | -0.0463 |
| RRIRHRPPRLPRPRPRPMVIPRP | -0.0264 |
| RRIRNRPPRLPRPRPRPNEYPRP | -0.312 |
| RRIRNRPPRLPRPRPRPGKAPRP | -0.181 |
| RRIRTRPPRLPRPRPRPKCNPRP | -0.221 |
| RRIRVRPPRLPRPRPRPLNKPRP | -0.323 |
| RRIRYRPPRLPRPRPRPRNHPRP | -0.336 |
| RRIRERPPRLPRPRPRPSAMPRP | -0.279 |
| RRIRERPPRLPRPRPRPPERPRP | 0.366 |
| RRIRNRPPRLPRPRPRPCPQPRP | 0.0087 |
| RRIRERPPRLPRPRPRPQFHPRP | -0.629 |
| RRIRTRPPRLPRPRPRPGFVPRP | -0.0603 |
| RRIRFRPPRLPRPRPRPESLPRP | 0.0896 |
| RRIRDRPPRLPRPRPRPHTDPRP | -0.623 |
| RRIRRRPPRLPRPRPRPALHPRP | 0.651 |

| Sequence | shrunken log2 fold change |
| --- | --- |
| RRIRFRPPRLPRPRPRPEAGPRP | 0.806 |
| RRIRERPPRLPRPRPRPHASPRP | -0.346 |
| RRIRKRPPRLPRPRPRPPCFPRP | 0.211 |
| RRIRCRPPRLPRPRPRPQRYPRP | -0.105 |
| RRIRSRPPRLPRPRPRPQEQPRP | 0.0984 |
| RRIRARPPRLPRPRPRPQMWPRP | 0.102 |
| RRIRERPPRLPRPRPRPCPKPRP | -0.39 |
| RRIRWRPPRLPRPRPRPEIYPRP | 0.21 |
| RRIRRRPPRLPRPRPRPDQFPRP | -0.0176 |
| RRIRYRPPRLPRPRPRPTVEPRP | 0.0629 |
| RRIRRRPPRLPRPRPRPVNCPRP | 0.148 |
| RRIRRRPPRLPRPRPRPFTEPRP | -0.267 |
| RRIRVRPPRLPRPRPRPTATPRP | 0.272 |
| RRIRMRPPRLPRPRPRPWAMPRP | 0.0684 |
| RRIRGRPPRLPRPRPRPFWPPRP | 0.653 |
| RRIRKRPPRLPRPRPRPTLAPRP | 1.19 |
| RRIRGRPPRLPRPRPRPNLCPRP | -0.0201 |
| RRIRQRPPRLPRPRPRPNTMPRP | 0.12 |
| RRIRRRPPRLPRPRPRPKKEPRP | -0.0417 |
| RRIRRRPPRLPRPRPRPCYAPRP | 1.3 |
| RRIRRRPPRLPRPRPRPHKFPRP | -0.132 |
| RRIRIRPPRLPRPRPRPLEIPRP | -0.0939 |
| RRIRVRPPRLPRPRPRPAVYPRP | -0.161 |
| RRIRGRPPRLPRPRPRPQYPPRP | -0.865 |
| RRIRCRPPRLPRPRPRPTVMPRP | 0.0757 |

| Sequence | shrunken log2 fold change |
| --- | --- |
| RRIRGRPPRLPRPRPRPRRQPRP | 0.85 |
| RRIRNRPPRLPRPRPRPNESPRP | -0.121 |
| RRIRSRPPRLPRPRPRPVAKPRP | 0.116 |
| RRIRMRPPRLPRPRPRPMQCPRP | -0.0018 |
| RRIRSRPPRLPRPRPRPRWAPRP | 0.158 |
| RRIRHRPPRLPRPRPRPAFRPRP | 0.0888 |
| RRIRPRPPRLPRPRPRPDAWPRP | 0.513 |
| RRIRKRPPRLPRPRPRPAIYPRP | -0.109 |
| RRIRGRPPRLPRPRPRPWYMPRP | 0.0753 |
| RRIRWRPPRLPRPRPRPPIQPRP | 0.277 |
| RRIRTRPPRLPRPRPRPAMKPRP | -0.125 |
| RRIRNRPPRLPRPRPRPETNPRP | 0.196 |
| RRIRARPPRLPRPRPRPFHHPRP | -0.294 |
| RRIRCRPPRLPRPRPRPLKYPRP | -0.566 |
| RRIRTRPPRLPRPRPRPHEIPRP | 0.00283 |
| RRIRIRPPRLPRPRPRPMSHPRP | -0.0862 |
| RRIRSRPPRLPRPRPRPNWDPRP | -0.315 |
| RRIRWRPPRLPRPRPRPLNFPRP | -0.323 |
| RRIRDRPPRLPRPRPRPWPMPRP | -0.0379 |
| RRIRPRPPRLPRPRPRPCFFPRP | -0.0762 |
| RRIRERPPRLPRPRPRPWPSPRP | 0.134 |
| RRIRIRPPRLPRPRPRPDNHPRP | -0.0565 |
| RRIRARPPRLPRPRPRPTWEPRP | 1.02 |
| RRIRYRPPRLPRPRPRPHHPPRP | -0.38 |
| RRIRQRPPRLPRPRPRPVKYPRP | -0.067 |

| Sequence | shrunken log2 fold change |
| --- | --- |
| RRIRQRPPRLPRPRPRPPAHPRP | 0.0556 |
| RRIRARPPRLPRPRPRPVQYPRP | 0.0979 |
| RRIRLRPPRLPRPRPRPITAPRP | -0.0526 |
| RRIRMRPPRLPRPRPRPYIYPRP | -0.384 |
| RRIRRRPPRLPRPRPRPNFYPRP | -0.124 |
| RRIRKRPPRLPRPRPRPTNVPRP | 0.221 |
| RRIRWRPPRLPRPRPRPPSRPRP | 0.314 |
| RRIRSRPPRLPRPRPRPTTWPRP | 0.053 |
| RRIRKRPPRLPRPRPRPDYKPRP | -0.208 |
| RRIRCRPPRLPRPRPRPEMIPRP | 0.12 |
| RRIRSRPPRLPRPRPRPFGKPRP | -0.0207 |
| RRIRVRPPRLPRPRPRPCVMPRP | -0.0841 |
| RRIRARPPRLPRPRPRPALFPRP | 0.61 |
| RRIRMRPPRLPRPRPRPYQQPRP | -0.00196 |
| RRIRPRPPRLPRPRPRPVDCPRP | 0.00936 |
| RRIRPRPPRLPRPRPRPEFKPRP | 0.26 |
| RRIRCRPPRLPRPRPRPCPTPRP | 0.0528 |
| RRIRRRPPRLPRPRPRPDYAPRP | 0.559 |
| RRIRYRPPRLPRPRPRPADLPRP | -0.00419 |
| RRIRRRPPRLPRPRPRPYRAPRP | -0.47 |
| RRIRLRPPRLPRPRPRPFRNPRP | -0.0827 |
| RRIRNRPPRLPRPRPRPGSTPRP | -0.145 |
| RRIRRRPPRLPRPRPRPPSMPRP | 0.426 |
| RRIRMRPPRLPRPRPRPDWVPRP | 0.0143 |
| RRIRVRPPRLPRPRPRPERCPRP | 0.187 |

| Sequence | shrunken log2 fold change |
| --- | --- |
| RRIRLRPPRLPRPRPRPLQKPRP | 0.141 |
| RRIRRRPPRLPRPRPRPMMPPRP | 0.135 |
| RRIRMRPPRLPRPRPRPYMLPRP | -0.0122 |
| RRIRMRPPRLPRPRPRPYTGPRP | 0.042 |
| RRIRSRPPRLPRPRPRPKWIPRP | -0.553 |
| RRIRPRPPRLPRPRPRPQENPRP | -0.125 |
| RRIRFRPPRLPRPRPRPDFEPRP | 0.0453 |
| RRIRGRPPRLPRPRPRPTIDPRP | 0.214 |
| RRIRCRPPRLPRPRPRPDQKPRP | 0.0192 |
| RRIRRRPPRLPRPRPRPDQKPRP | -0.0181 |
| RRIRERPPRLPRPRPRPDIVPRP | -0.158 |
| RRIRPRPPRLPRPRPRPKVCPRP | 0.0118 |
| RRIRQRPPRLPRPRPRPVIMPRP | -0.348 |
| RRIRARPPRLPRPRPRPQMNPRP | -0.113 |
| RRIRPRPPRLPRPRPRPDVEPRP | -0.0392 |
| RRIRNRPPRLPRPRPRPIHSPRP | -0.189 |
| RRIRTRPPRLPRPRPRPEFKPRP | 0.0563 |
| RRIRERPPRLPRPRPRPEAGPRP | 0.0425 |
| RRIRGRPPRLPRPRPRPAMVPRP | 0.252 |
| RRIRQRPPRLPRPRPRPNQEPRP | -0.0578 |
| RRIRERPPRLPRPRPRPIYEPRP | -0.236 |
| RRIRVRPPRLPRPRPRPTNAPRP | -0.211 |
| RRIRKRPPRLPRPRPRPPEYPRP | 0.0748 |
| RRIRHRPPRLPRPRPRPFRRPRP | 0.0303 |
| RRIRERPPRLPRPRPRPPWEPRP | 0.145 |

Source: the supplement of paper PMC9112550, “Optimization of the antimicrobial peptide Bac7 by deep mutational scanning” (BMC Biology, 2022)
